Data as given in patent publication US20210388108A1 (GLYCARDIAL DIAGNOSTICS S L, published 2021).
No end group written: not given here. *: point of attachment. Biotin = O=C1N[C@H]2[C@H](CS[C@H]2CCCCC(=O)*)N1; GlcNAc = N-acetylglucosamine

T1: Ag1G (Bio-REIRHN(GlcNAc)STGC)
T1 peptide: Biotin-REIRHN(GlcNAc)STGC

T2: Ag4G (Bio-EEFLN(GlcNAc)QSSP)
T2 peptide: Biotin-EEFLN(GlcNAc)QSSP

B1: Ag1G-11 (antibody, V domains shown)
VH: QSLEESGGRLVTPGGSLTLTCTVSGFSLSSYAMSWVRQAPGKGLEWIGIIGVNGDTYYASWAKGRFTISKTSTTVGLKITSPTTEDTATYFCARVRYPYYDTDAFDPWGPGTLVTISS
VL: DPVLTQTPSPVSAAVGGTVTINCQASQSVYNNNELSWYQQKPGQPPKPLIYQASKLASGVPSRFKGSGSGTQFTLTISDLECDDAATYYCQGIYLGSDWYDVFGGGTEVVVKR
notes: Rabbit/human chimeric clone from a Fab phage library; tested 'in the form of IgG'; the FWR4 entries as printed run on into human C kappa (light) and human CH1 plus His tag (heavy), i.e. the Fab format; also called Apo J-GlcNAc Ag1G-11
B2: Ag4G-6 (antibody, V domains shown)
VH: QQLEESGGRLVTPGTPLTLTCTASGMDLSKYWMTWVRQAPGKGLEYIGIIETGGSAYYASWAKGRFTISRTSTTVDLKMISPTTEDTATYFCGRWGDIWGPGTLVTVSS
VL: MTQTPASVEVAVGGTVTIKCQASQSINGYLAWYQQKPGQPPKLLIYQASTLASGVSSRFQGSGSGTEYTLTISGVQCDDAATYYCQGDYYGWIRTFGGGTEVVVKR
notes: Rabbit/human chimeric clone from a Fab phage library; tested 'in the form of IgG'; the FWR4 entries as printed run on into human C kappa (light) and human CH1 plus His tag (heavy), i.e. the Fab format; also called Apo J-GlcNAc Ag4G-6

Tests used:
[1] = biological target: T1, Ag1G (Bio-REIRHN(GlcNAc)STGC); test: QC ELISA of the IgG on its target peptide
[2] = biological target: T2, Ag4G (Bio-EEFLN(GlcNAc)QSSP); test: QC ELISA of the IgG on its target peptide

Row | Binder | binding result [1] | binding result [2]
1 | B1 | binds | 
2 | B2 |  | binds
